Values joined by “and” are separate entries in the source; they are usually repeats but may differ in a detail not shown here. Equal values may be shown once.
T1: WT
T1 construct: also called T cells of wild-type (WT) mice; mouse TNFR2 on the cell membrane
T1 chain: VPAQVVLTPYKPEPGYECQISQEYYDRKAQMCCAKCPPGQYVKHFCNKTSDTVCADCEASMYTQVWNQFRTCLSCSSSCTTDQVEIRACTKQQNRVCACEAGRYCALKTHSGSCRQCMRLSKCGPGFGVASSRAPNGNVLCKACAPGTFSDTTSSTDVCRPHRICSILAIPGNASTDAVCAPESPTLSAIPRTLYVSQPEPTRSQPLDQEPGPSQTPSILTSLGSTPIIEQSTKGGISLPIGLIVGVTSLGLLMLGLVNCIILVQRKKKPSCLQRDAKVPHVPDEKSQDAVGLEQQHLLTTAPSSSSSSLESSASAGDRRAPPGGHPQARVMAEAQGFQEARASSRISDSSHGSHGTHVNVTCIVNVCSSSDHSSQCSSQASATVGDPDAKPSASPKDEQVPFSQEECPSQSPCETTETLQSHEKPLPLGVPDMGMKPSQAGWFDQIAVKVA

T2: TNFR2-His (Sino Biological, 10417-H08H, NP_001057.1 Met1-Asp257, with multi-histidine tag expressed on … (human, UniProt P20333 23-257))
T2 construct: range 1-257; Bought protein; also called recombinant human TNFR2 protein; TNFR2-His antigen; not shown: C-terminal multi-histidine tag
T2 sequence (looked up): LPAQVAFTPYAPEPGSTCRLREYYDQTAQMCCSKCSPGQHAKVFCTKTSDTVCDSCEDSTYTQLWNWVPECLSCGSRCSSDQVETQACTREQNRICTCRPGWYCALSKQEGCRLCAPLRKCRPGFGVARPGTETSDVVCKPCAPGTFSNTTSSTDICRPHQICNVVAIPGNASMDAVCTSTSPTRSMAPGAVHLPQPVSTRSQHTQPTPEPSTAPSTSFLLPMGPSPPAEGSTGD

T3: human TNFR2 on the cell membrane (human, UniProt P20333 23-461)
T3 construct: whole, on cells; One molecule for all cell formats; also called TNFR2-CHO cells; CHO-TNFR2
T3 sequence (looked up): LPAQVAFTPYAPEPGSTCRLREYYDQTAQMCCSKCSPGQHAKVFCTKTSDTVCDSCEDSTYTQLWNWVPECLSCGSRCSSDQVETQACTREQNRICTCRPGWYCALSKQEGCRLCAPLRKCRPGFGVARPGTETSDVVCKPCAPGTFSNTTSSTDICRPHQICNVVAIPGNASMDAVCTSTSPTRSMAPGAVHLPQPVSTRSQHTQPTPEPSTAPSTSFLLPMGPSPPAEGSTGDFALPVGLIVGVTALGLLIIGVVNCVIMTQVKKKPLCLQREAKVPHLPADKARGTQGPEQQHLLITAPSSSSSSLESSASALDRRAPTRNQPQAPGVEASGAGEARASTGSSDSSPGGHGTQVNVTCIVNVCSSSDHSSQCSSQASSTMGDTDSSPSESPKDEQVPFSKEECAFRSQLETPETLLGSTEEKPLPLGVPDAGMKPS


Legend:
WT = target: T1, WT; assay: flow cytometry on ConA-stimulated spleen cells of WT mice, mCD3+ T cells
Method: The cells were stained again with Cy-3 anti-human IgG and FITC anti-mCD3 (BD, 555274) after washing, under the same incubation conditions. After washing, the detection was performed.

[1] = target: T2, TNFR2-His (Sino Biological, 10417-H08H, …); assay: competition ELISA on coated TNFR2-His against biotin-labeled TNFα fusion protein at fixed concentration
Method: (§1) The ELISA plate was coated with TNFR2-His antigen (Sino Biological, 10417-H08H, Assessment #NP_001057.1. Met1-Asp257, with multi-histidine tags expressed on C-terminus) and blocked, added with the gradient diluted TNFR2 monoclonal antibodies and biotin-labeled TNFα fusion protein of fixed concentration for incubation, then added with the secondary antibody Ap-Strepavidin (Herobio, 510401) for incubation. After development, the detection was performed using microplate reader.

[2] = target: T2, TNFR2-His (Sino Biological, 10417-H08H, …); assay: competition ELISA, coated TNFR2-His, biotin-labeled TNFα fusion protein at fixed concentration
Method: as §1

[3] = target: T3, human TNFR2 on the cell membrane; assay: flow cytometry on CHO-TNFR2 cells
How it was run: (§2)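 CHO cells were transfected with a pcDNA3.4 vector carrying human TNFR2, taken through drug selection and sorted as single clones to give a line that stably overexpresses the receptor. These cells were placed in 96-deep-well plates, incubated with serially diluted antibodies, washed and then stained with a fluorescent anti-IgG secondary antibody. Flow cytometry was run on a Beckman CytoFLEX, and EC50 values were derived from the dilution series.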

[4] = target: T2, TNFR2-His (Sino Biological, 10417-H08H, …); assay: ELISA, plate coated with TNFR2-His (second test)
How it was run: (§3)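 EC50 values come from antibody dilution series tested by ELISA. Plates were coated with recombinant human TNFR2 bearing a C-terminal His tag and blocked before the serially diluted antibodies were added. Binding was detected with an enzyme-labelled anti-IgG secondary antibody, TMB development and a microplate reader.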

[5] = target: T2, TNFR2-His (Sino Biological, 10417-H08H, …); assay: ELISA, plate coated with TNFR2-His (first test)
How it was run: as §3

[6] = target: T3, human TNFR2 on the cell membrane; assay: flow cytometry, CHO-TNFR2 cells
How it was run: as §2

[7] = target: T2, TNFR2-His (Sino Biological, 10417-H08H, …); assay: BLI, antibody captured on AHC probe, TNFR2 in solution
How it was run: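 Bio-layer interferometry on an Octet in Basic Kinetics mode. Antibodies at 50 nM in Q buffer (10 mM PBS pH 7.4, 0.02% Tween 20, 0.2% BSA) were held on antibody-capture sensors. The sensors were then placed in recombinant human TNFR2 diluted 2-fold in Q buffer from a top concentration of 100 nM. Kon, koff and Kd come from these kinetic association measurements.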

| Binder | binding result (WT) | percent of cells in the upper right quadrant (Q2-UR, mCD3+ and anti-hIgG+) (WT) | IC50 [1] | IC50 [2] | EC50 [3] | EC50 [4] | EC50 [5] | EC50 [6] | Kd [7] | koff [7] | kon [7] |
| --- | --- | --- | --- | --- | --- | --- | --- | --- | --- | --- | --- |
| human-mouse chimeric TNFR2 monoclonal antibody 27F6-hFc (antibody, V domains shown, Mouse V regions of clone 27F6 with human constant regions) VH: EVQLQQSGTVLARPGASVKMSCKTSGYTFTSYWMHWVKQRPGQGLEWIGTIYPGNSDTSYNQKFKGKAKLTAVTSASTAYMELNSLTNEDSAVFYCTRENLLLRSYFFDYWGQGTTLTVSS VL: DIVMTQSPASLAVSLGQRATISCKASQSVDYDGDSYLNWYQQKPGQPPKLLIYAASNLPSGIPARFSGSGSGTDFTLNIHPVEEEDAATYYCQQSNEDPRTFGGGTKLEIK | no binding | 1.04% | 0.674 µg/mL and 4.52 nM | 0.644 µg/mL | – | – | – | – | – | – | – |
| human-mouse chimeric TNFR2 monoclonal antibody 12E12-hFc (antibody, V domains shown, Mouse V regions of clone 12E12 with human constant regions; also called human-mouse chimeric 12E12 antibody) VH: EVQLQQSGAELVKPGASVKLSCTVSGFNIKDFYIHWVKQRPEQGLEWIGRVDPEDGNTEYAPNFQDRATMTTDTSSNTAYLQLSSLTSVDTAVYYCSTWDGFSYFDYWGLGTTLTVSS VL: QAVVTQESALTTSPGETVTLTCRSSTGPVTTNNYANWVQEKPDHLFTGLIGGTNDRAPGVPARFSGSLIGDKTALTITGTQTEDEAVYFCALWYRNHWVFGGGTKLTVL | no binding | 0.83% | – | – | 0.0291 µg/mL | 0.0346 µg/mL and 0.232 nM | 0.0454 µg/mL and 0.304 nM | 0.195 nM | 3.27 nM | 0.00216 s⁻¹ | 659000 M⁻¹ s⁻¹ |

— patent US20240392024A1 (SHANGHAI CELGEN BIO PHARMACEUTICAL, published 2024)
